Publication PMC10491434, “SPOP targets the immune transcription factor IRF1 for proteasomal degradation” (eLife, 2023)

Molecular target: T1, wild-type interferon regulatory factor 1 (wtIRF1) (human, UniProt P10914 1-325)
T1 sequence (looked up): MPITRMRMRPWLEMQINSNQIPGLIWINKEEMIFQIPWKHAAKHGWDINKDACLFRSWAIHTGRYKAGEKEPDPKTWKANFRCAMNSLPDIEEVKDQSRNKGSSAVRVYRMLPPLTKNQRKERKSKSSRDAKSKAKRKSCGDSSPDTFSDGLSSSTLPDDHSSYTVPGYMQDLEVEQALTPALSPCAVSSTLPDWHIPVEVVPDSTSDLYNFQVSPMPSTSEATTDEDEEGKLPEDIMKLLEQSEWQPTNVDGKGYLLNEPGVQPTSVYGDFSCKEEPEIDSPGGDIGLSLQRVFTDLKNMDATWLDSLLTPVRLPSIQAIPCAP
Test: cell-based or functional assay

B1: Ollas-tagged wild-type speckle type BTB/POZ protein (wtSPOP) (natural protein, UniProt O43791 1-374, looked up)
chain: MSRVPSPPPPAEMSSGPVAESWCYTQIKVVKFSYMWTINNFSFCREEMGEVIKSSTFSSGANDKLKWCLRVNPKGLDEESKDYLSLYLLLVSCPKSEVRAKFKFSILNAKGEETKAMESQRAYRFVQGKDWGFKKFIRRDFLLDEANGLLPDDKLTLFCEVSVVQDSVNISGQNTMNMVKVPECRLADELGGLWENSRFTDCCLCVAGQEFQAHKAILAARSPVFSAMFEHEMEESKKNRVEINDVEPEVFKEMMCFIYTGKAPNLDKMADDLLAAADKYALERLKVMCEDALCSNLSVENAAEILILADLHSADQLKTQAVDFINYHASDVLETSGWKSMVVSHPHLVAEAYRSLASAQCPFLGPPRKRLKQS
In the case of B1, the “fold decrease in IRF1-driven ISRE luciferase reporter activity in HEK-293T cells with SPOP co-expression (dual luciferase assay)” value is reported as 11 fold.
